The target of test [1] is T1, Human TGR342 (human, UniProt Q969V1 1-340).
T1 construct: Full-length cDNA in pEF6-V5 (Invitrogen), transiently expressed in HEK293 or CHO cells; also called MCHR2; MCHR-2
The test is described as follows: [125I]-MCH binding to membranes of HEK293 cells transiently transfected with pEF6/V5-TGR342; specific binding = total minus mock-transfected membranes.

In test [2] the target is T1, Human TGR342. The test is described as follows: cell-based or functional assay.

Where no end group is shown, it is not given here.

Here are results for 2 molecules from US20030027252A1 (TULARIK, published 2003).

T1 sequence (Q969V1 whole entry): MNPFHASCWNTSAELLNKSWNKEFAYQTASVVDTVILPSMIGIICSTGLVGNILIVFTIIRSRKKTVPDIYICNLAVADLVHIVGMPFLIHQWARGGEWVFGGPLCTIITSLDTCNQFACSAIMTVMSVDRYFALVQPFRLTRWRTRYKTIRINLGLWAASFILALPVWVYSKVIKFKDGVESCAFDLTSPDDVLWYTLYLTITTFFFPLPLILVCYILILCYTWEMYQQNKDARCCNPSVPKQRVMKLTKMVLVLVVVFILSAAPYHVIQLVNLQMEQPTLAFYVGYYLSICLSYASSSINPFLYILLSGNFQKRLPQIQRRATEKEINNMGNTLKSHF

As for DFDMLRCMLGRVYRPCWQV (peptide, UniProt P20382 147-165, looked up, ends and bridges not checked; also: 125I label, labelled residue not given here, mature) [[^125I]-MCH], in the test with Human TGR342 [1], binding was put at a Kd of 9.6 nM.
In the case of DFDMLRCMLGRVYRPCWQV (peptide, UniProt P20382 147-165, looked up, ends and bridges not checked; cysteine pairing not given here) [melanin-concentrating hormone (MCH)], the “EC50, aequorin luminescence assay (intracellular calcium mobilization), transfected HEK293 cells” value in the test with Human TGR342 [2] is 2 nM.
